Data as given in US20240218054A1 (MABLOC, published 2024).

Biological target: T1, recombinant YFV E protein (soluble E, sE; YFV Asibi strain) (Yellow fever virus, Asibi strain, UniProt Q6DV88 286-678)
T1 construct: also called YFV E antigen; YFV E monomer
Test: BLI monovalent (IgG on tip)

T1 sequence (Q6DV88 286-678): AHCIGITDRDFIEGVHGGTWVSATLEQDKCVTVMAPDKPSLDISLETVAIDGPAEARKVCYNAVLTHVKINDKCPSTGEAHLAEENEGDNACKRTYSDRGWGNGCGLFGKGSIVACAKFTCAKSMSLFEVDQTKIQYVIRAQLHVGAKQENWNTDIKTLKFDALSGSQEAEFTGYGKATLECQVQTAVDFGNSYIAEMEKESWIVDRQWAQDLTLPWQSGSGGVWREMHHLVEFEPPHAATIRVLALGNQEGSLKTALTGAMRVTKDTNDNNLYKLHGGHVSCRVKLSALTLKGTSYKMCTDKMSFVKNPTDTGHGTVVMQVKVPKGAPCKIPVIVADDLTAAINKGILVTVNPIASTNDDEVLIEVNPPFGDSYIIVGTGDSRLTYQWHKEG

| Binder | Kd [nM] |
| --- | --- |
| ADI-42821 (antibody, V domains shown, full-length IgG; also called Antibody Number 49) VH: EVQLLESGGGLVPPGGSLRLSCAASGFTFSNYAMSWVRQAPGKGLEWVSAISGSGDSTYYADSVKGRFTLSRDTSKKMVYLHMSNLRDDDTAVYYCARDQGFTTDWPCDYWGQGTLVTVSS VL: DIVLTQSPSTLSASVGDRVTVTCRASQNINTYLAWYQQIPGKAPRLLIYRASSLESGVPSRFSGSGSGTEFTLTISSLQPDDFATYYCQHYNSFSVKFGQGTKVEIK | 12.1 |
| ADI-42154 (antibody, V domains shown, full-length IgG; also called Antibody Number 55) VH: EVQLVQSGGGLVQPGGSLRLSCAASGFTFSTYWMSWVRQAPGKGLEWVANIKQDGSEKYYVDSVKGRFTISRDNAKNSLYLQMNSLRAEDTAVYYCARDISCISTSCYGGYYYYGMDVWGQGTTVTVSS VL: not shown | 164 |
| ADI-42849 (antibody, V domains shown, full-length IgG; also called Antibody Number 50) VH: QVQLVESGGGLVKPGGSLRLSCAASGFTFSDYYMSWIRQAPGKGLEWVSYITSSGNTMYYADSVKGRFTISRDNAKNSLYLQMNSLRAEDTAVYYCARDSNFNSNLDYWGQGTLVTVSS VL: SYELTQPPSVSVAPGQTARITCGGHNVGSKSVHWYQQKPGQAPVLVVYDDSDRPSGIPERFSGSNSGNTATLTISRVEAGDEADYYCQVWDSSSDHPWVFGGGTKVTVL | 1.98 |
| ADI-48916 (antibody, V domains shown, full-length IgG; also called Antibody Number 56) VH: EVQLVESGGGVVQPGRSLRLSCAASGFTFSNSGMHWVRQAPGKGLEWVAVIWYDSRNQNYADSVKGRFTISRDNSKNTLFLQMNSLRAEDTAVYYCARDYYASGDGSIDYWGQGTLVTVSS VL: DIQVTQSPSSLSASVGGRVTITCRASQGIRNDLGWYQRKPGKAPKRLIYAASSLQSGVPSRFSGSGSGTEFTLTISSLQPEDFATYYCLQHNSYPLTFGGGTKVDIK | 393 |
| ADI-49161 (antibody, V domains shown, full-length IgG; also called Antibody Number 54) VH: QVQLVQSGAEVKKPGASVKVSCKASGYTFNTYAMTWVRQAPGQGLEWMGWISTYNGNTVFGQKFQGRVTLSTDTSTSTAYMELRSLTSDDTAVYYCAREDDDYYSMDVWGQGTTVTVSS VL: QPVLTQPASVSGSPGQSITISCTGTSTDVGGYNYVSWYQQYPGKAPKLIIYDVTNRPSGVSHRFSGSKSGNTASLTISGLQAEDEADYYCSSYTTTSLVIFGGGTKLTVL | 1.81 |
| ADI-46001 (antibody, V domains shown, full-length IgG; also called Antibody Number 52) VH: EVQLVESGGGLVKPGGSLRLSCAASGFTFSDYYMSWIRQAPGKGLEWVSYISSSGNTIYYADSVKGRFTISRDNAKNSLYLQLNSLRAGDTAVYYCARDSNYFYGLDVWGQGTTVTVSS VL: QPVLTQPPSVSVAPGQTARITCGGNNIGSKSVHWYQQKPGQAPMLVIYSNSDRPSGIPERFSGSNSGITATLTISRVEAGDEADYHCQVWDTSIDHHWVFGGGTKLTVL | 6.17 |
| ADI-45085 (antibody, V domains shown, full-length IgG; also called Antibody Number 57) VH: EVQLVESGGGLVQPGGSLRLSCAASGFTFSSYAMSWVRQAPGKGLEWVSTFSGRGGSTYYADFVKGRFTISRDNSKNTLYLQMNSLRAEDTAVYYCAKYYDSSGYYYFDYWGQGTLVTVSS VL: DIQLTQSPSTLSASVGDRVTITCRASQSISTWLAWYQQKPGKAPKLLIYRASSLESGVPSRFSASGSGTEFTLSISSLQPDDFATYYCKQYNRNPYTFGQGTKVEIK | 152 |
| ADI-45097 (antibody, V domains shown, full-length IgG; also called Antibody Number 5) VH: EVQLVESGGGVVQPGRSLRLSCAASGFTFNSHGMHWVRQAPGKGLEWVAVISYDGTKKYFADSVKGRFTISRDNSKNTLYLQMSSLRADDTAVYYCAKDSSTSWYQVVYHIDYWGQGTLVTVSS VL: QSVVTQPPSVSAAPGQKVTISCSGSSSNIGNNYVAWYQQLPGRAPKLLIHDNKKRPSGIPDRFSGSASGTSATLGITGLQTGDEADYYCETWDSSLNAVVFGGGTKLTVL | 1.62 |
| ADI-45154 (antibody, V domains shown, full-length IgG; also called Antibody Number 53) VH: EVQLVESGGGVVQPGRSLRLSCAASGFTFSNYGMHWVRQAPGKGLEWVAVISYDGSNKYYADSVKGRFTISRDDSKNTLYLQVNSLRAEDTAVYYCAKDICSGDCGGGDYWGQGTLVTVSS VL: QSVLIQPPSASGSPGQSVTISCTGTSSDVGGYNYVSWYQQHPGKAPKLMIYEVSKRPSGVPDRFSGSKSGNTASLTVSGLQAEDGADYYCSSYAGSNNWVVFGGGTKLTVL | > 100 |
